Experiment [1] addresses HOL-18, 18 kDa chitotriose-binding lectin from Halichondria okadai (Halichondria okadai).
Experiment [2] deals with porcine stomach mucin (porcine). In words: SPR; PSM coupled to a CM5 chip (5800 RU), HOL-18 as analyte in HBS buffer, 20 uL/min, 25 °C, BIAcore 3000, 1:1 model, BIAevaluation 3.0; bound lectin removed with 200 mM D-GlcNAc. (In general: SPR reads the build-up and loss of mass on a sensor chip optically.)
Experiment [3] concerns the target HOL-18, 18 kDa chitotriose-binding lectin from Halichondria okadai (Halichondria okadai). In words: SDS-PAGE after timed heat treatment; purified lectin in sample buffer (0.2% SDS, with or without 2% 2-mercaptoethanol) heated at 70 °C for 5-60 min; the 36 kDa dimer was retained up to 15 min and dissociated within 20-30 min.
Experiment [4] has the same target. Kind of experiment: SEC; gel permeation chromatography on Superdex 75 (1.0 x 32 cm), HPLC, 0.5 mL/min, 20 ug purified lectin, native conditions, calibrated with marker proteins. On the technique in general: SEC sorts molecules by how far they enter the pores of the column.

4 molecules from article PMC3386633 can be followed below.

In general, Kd refers to the constant that tells how readily two partners part at equilibrium. A low value points to a tighter complex. In general, koff refers to a measure of how fast the partners let go of each other. The low end stands for a long-lived complex, the high end for a short-lived complex. What is called kon is the second-order rate constant of association. Low readings indicate slow association, high ones fast association. The stoichiometry N is a count of units in the complex or per binding partner.

porcine stomach mucin (natural protein): the minimum inhibitory concentration of the hemagglutination of human type A erythrocytes by HOL-18 (16 HA units) in experiment [1] worked out at 10 µg/mL.
On to “bovine submaxillary mucin (natural protein)”, for which the minimum inhibitory concentration of the hemagglutination of human type A erythrocytes by HOL-18 (16 HA units) in experiment [1] is 125 µg/mL.
In experiment [2], “HOL-18, 18 kDa chitotriose-binding lectin from Halichondria okadai (natural protein)” displayed a Kd of 4.4 µM, a koff of 0.0061 s⁻¹ and a kon of 1400 M⁻¹ s⁻¹. In experiment [3], this molecule came in with a stoichiometry N of 2. In experiment [4], the stoichiometry N is 4.

B1: fetuin (natural protein)
chain: IPLDPVAGYKEPACDDPDTEQAALAAVDYINKHLPRGYKHTLNQIDSVKVWPRRPTGEVYDIEIDTLETTCHVLDPTPLANCSVRQQTQHAVEGDCDIHVLKQDGQFSVLFTKCDSSPDSAEDVRKLCPDCPLLAPLNDSRVVHAVEVALATFNAESNGSYLQLVEISRAQFVPLPVSVSVEFAVAATDCIAKEVVDPTKCNLLAEKQYGFCKGSVIQKALGGEDVRVTCTLFQTQPVIPQPQPDGAEAEAPSAVPDAAGPTPSAAGPPVASVVVGPSVVAVPLPLHRAHYDLRHTFSGVASVESSSGEAFHVGKTPIVGQPSIPGGPVRLCPGRIRYFKI
modifications: O-linked oligosaccharides and sialyl N-acetyllactosamine (Neu5Acα2-3/6Galβ1-4GlcNAc) chains in complex-type N-linked glycans
With B1, the minimum inhibitory concentration of the hemagglutination of human type A erythrocytes by HOL-18 (16 HA units) in experiment [1] was 125 µg/mL.
